Measurements as given in patent US20210292422A1 (published 2021).
Like-named read-outs stand apart in the source and are kept apart here.

T1: LRP6E1E2 (UniProt O75581 20-630)
T1 chain: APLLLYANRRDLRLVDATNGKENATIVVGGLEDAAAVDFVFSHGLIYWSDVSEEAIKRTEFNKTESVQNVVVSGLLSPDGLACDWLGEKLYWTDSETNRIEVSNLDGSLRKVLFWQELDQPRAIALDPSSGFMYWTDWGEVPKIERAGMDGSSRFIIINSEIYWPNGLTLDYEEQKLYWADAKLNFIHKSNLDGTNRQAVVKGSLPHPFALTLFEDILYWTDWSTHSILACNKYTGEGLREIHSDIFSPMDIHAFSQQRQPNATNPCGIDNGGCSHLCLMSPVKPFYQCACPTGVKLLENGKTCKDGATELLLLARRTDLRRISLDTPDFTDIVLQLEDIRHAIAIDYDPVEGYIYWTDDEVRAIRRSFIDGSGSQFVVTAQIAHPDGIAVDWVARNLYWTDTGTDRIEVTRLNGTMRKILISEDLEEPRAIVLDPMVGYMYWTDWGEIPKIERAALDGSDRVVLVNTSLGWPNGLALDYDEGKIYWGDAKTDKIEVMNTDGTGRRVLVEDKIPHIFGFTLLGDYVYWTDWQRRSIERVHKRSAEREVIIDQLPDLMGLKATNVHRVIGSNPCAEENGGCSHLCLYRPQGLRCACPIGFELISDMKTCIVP


Assays:
Test in all cases: BLI (Octet)
Frizzled 1 (Fzd1) = Frizzled 1 (Fzd1) (UniProt Q9UP38 111-230)
LRP6E1E2 [1] = biological target: T1, LRP6E1E2
LRP6E1E2 [2] = biological target: T1, LRP6E1E2

| Binder | Kd (Frizzled 1 (Fzd1)) [nM] | Kd (LRP6E1E2 [1]) [nM] | Kd (LRP6E1E2 [2]) [nM] |
| --- | --- | --- | --- |
| L1:5:F1:Fc (bispecific antibody) DVKLVESGGGLVKLGGSLRLSCAASGFSFSTSYMSWVRQTPEKRLELVAAINLNGGSTYYSDTVKGRFTISRDNAKNTLYLQMSSLKSEDTAFYYCASELAGYGTPFAYWGQGTLVTVSAGSAASGSSGGSSSGADIVLTQSPATLSVTPGDSVSLSCKASQSISYNLHWYQQKSHESPRLLIKYTSQSISGIPSRFSGSGSGTDFTLTINNVETEDFGMYFCQQSNSWPLTFGAGTKLEVKGSGSGEVQLVESGGGLVQPGGSLRLSCAASGFTFSHYTLSWVRQAPGKGLEWVSVISGDGSYTYYADSVKGRFTISSDNSKNTLYLQMNSLRAEDTAVYYCARNFIKYVFANWGQGTLVTVSSGGGGSGGGGSGGGGSDIELTQPPSVSVAPGQTARISCSGDNIGSFYVHWYQQKPGQAPVLVIYDKSNRPSGIPERFSGSNSGNTATLTISGTQAEDEADYYCQSYANTLSLVFGGGTKLTVLGSGSGDKTHTCPPCPAPEAAGGPSVFLFPPKPKDTLMISRTPEVTCVVVDVSHEDPEVKFNWYVDGVEVHNAKTKPREEQYNSTYRVVSVLTVLHQDWLNGKEYKCKVSNKALGAPIEKTISKAKGQPREPQVYTLPPSREEMTKNQVSLTCLVKGFYPSDIAVEWESNGQPENNYKTTPPVLDSDGSFFLYSKLTVDKSRWQQGNVFSCSVMHEALHNHYTQKSLSLSPGK | 0.6 | 4.9 |  |
| αGFP:5:L1:Fc (bispecific antibody) QVQLVESGGGLVQPGGSLRLSCAASGFTFSRYGMHWVRQAPGKGLEWVSGISSIGSNTYYADSVKGRFTISRDNSKNTLYLQMNSLRAEDTAVYYCARWYKTYIDVWGQGTLVTVSSGGGGSGGGGSGGGGSDIELTQPPSVSVAPGQTARISCSGDNLGKKYVYWYQQKPGQAPVLVIYGDDERPSGIPERFSGSNSGNTATLTISGTQAEDEADYYCASYDSSHILIVFGGGTKLTVLGSGSGDVKLVESGGGLVKLGGSLRLSCAASGFSFSTSYMSWVRQTPEKRLELVAAINLNGGSTYYSDTVKGRFTISRDNAKNTLYLQMSSLKSEDTAFYYCASELAGYGTPFAYWGQGTLVTVSAGSAASGSSGGSSSGADIVLTQSPATLSVTPGDSVSLSCKASQSISYNLHWYQQKSHESPRLLIKYTSQSISGIPSRFSGSGSGTDFTLTINNVETEDFGMYFCQQSNSWPLTFGAGTKLEVKGSGSGDKTHTCPPCPAPEAAGGPSVFLFPPKPKDTLMISRTPEVTCVVVDVSHEDPEVKFNWYVDGVEVHNAKTKPREEQYNSTYRVVSVLTVLHQDWLNGKEYKCKVSNKALGAPIEKTISKAKGQPREPQVYTLPPSREEMTKNQVSLTCLVKGFYPSDIAVEWESNGQPENNYKTTPPVLDSDGSFFLYSKLTVDKSRWQQGNVFSCSVMHEALHNHYTQKSLSLSPGK |  |  | 98 |
| F1:15:L1:Fc (bispecific antibody) EVQLVESGGGLVQPGGSLRLSCAASGFTFSHYTLSWVRQAPGKGLEWVSVISGDGSYTYYADSVKGRFTISSDNSKNTLYLQMNSLRAEDTAVYYCARNFIKYVFANWGQGTLVTVSSGGGGSGGGGSGGGGSDIELTQPPSVSVAPGQTARISCSGDNIGSFYVHWYQQKPGQAPVLVIYDKSNRPSGIPERFSGSNSGNTATLTISGTQAEDEADYYCQSYANTLSLVFGGGTKLTVLGSGSGGSGSGGSSGGDVKLVESGGGLVKLGGSLRLSCAASGFSFSTSYMSWVRQTPEKRLELVAAINLNGGSTYYSDTVKGRFTISRDNAKNTLYLQMSSLKSEDTAFYYCASELAGYGTPFAYWGQGTLVTVSAGSAASGSSGGSSSGADIVLTQSPATLSVTPGDSVSLSCKASQSISYNLHWYQQKSHESPRLLIKYTSQSISGIPSRFSGSGSGTDFTLTINNVETEDFGMYFCQQSNSWPLTFGAGTKLEVKGSGSGDKTHTCPPCPAPEAAGGPSVFLFPPKPKDTLMISRTPEVTCVVVDVSHEDPEVKFNWYVDGVEVHNAKTKPREEQYNSTYRVVSVLTVLHQDWLNGKEYKCKVSNKALGAPIEKTISKAKGQPREPQVYTLPPSREEMTKNQVSLTCLVKGFYPSDIAVEWESNGQPENNYKTTPPVLDSDGSFFLYSKLTVDKSRWQQGNVFSCSVMHEALHNHYTQKSLSLSPGK | 0.4 | 5.5 |  |
| F1:10:L1:Fc (bispecific antibody) EVQLVESGGGLVQPGGSLRLSCAASGFTFSHYTLSWVRQAPGKGLEWVSVISGDGSYTYYADSVKGRFTISSDNSKNTLYLQMNSLRAEDTAVYYCARNFIKYVFANWGQGTLVTVSSGGGGSGGGGSGGGGSDIELTQPPSVSVAPGQTARISCSGDNIGSFYVHWYQQKPGQAPVLVIYDKSNRPSGIPERFSGSNSGNTATLTISGTQAEDEADYYCQSYANTLSLVFGGGTKLTVLGSGSGGSGSGDVKLVESGGGLVKLGGSLRLSCAASGFSFSTSYMSWVRQTPEKRLELVAAINLNGGSTYYSDTVKGRFTISRDNAKNTLYLQMSSLKSEDTAFYYCASELAGYGTPFAYWGQGTLVTVSAGSAASGSSGGSSSGADIVLTQSPATLSVTPGDSVSLSCKASQSISYNLHWYQQKSHESPRLLIKYTSQSISGIPSRFSGSGSGTDFTLTINNVETEDFGMYFCQQSNSWPLTFGAGTKLEVKGSGSGDKTHTCPPCPAPEAAGGPSVFLFPPKPKDTLMISRTPEVTCVVVDVSHEDPEVKFNWYVDGVEVHNAKTKPREEQYNSTYRVVSVLTVLHQDWLNGKEYKCKVSNKALGAPIEKTISKAKGQPREPQVYTLPPSREEMTKNQVSLTCLVKGFYPSDIAVEWESNGQPENNYKTTPPVLDSDGSFFLYSKLTVDKSRWQQGNVFSCSVMHEALHNHYTQKSLSLSPGK | 0.4 | 5.4 |  |
| L1:15:F1:Fc (bispecific antibody) DVKLVESGGGLVKLGGSLRLSCAASGFSFSTSYMSWVRQTPEKRLELVAAINLNGGSTYYSDTVKGRFTISRDNAKNTLYLQMSSLKSEDTAFYYCASELAGYGTPFAYWGQGTLVTVSAGSAASGSSGGSSSGADIVLTQSPATLSVTPGDSVSLSCKASQSISYNLHWYQQKSHESPRLLIKYTSQSISGIPSRFSGSGSGTDFTLTINNVETEDFGMYFCQQSNSWPLTFGAGTKLEVKGSGSGGSGSGGSSGGEVQLVESGGGLVQPGGSLRLSCAASGFTFSHYTLSWVRQAPGKGLEWVSVISGDGSYTYYADSVKGRFTISSDNSKNTLYLQMNSLRAEDTAVYYCARNFIKYVFANWGQGTLVTVSSGGGGSGGGGSGGGGSDIELTQPPSVSVAPGQTARISCSGDNIGSFYVHWYQQKPGQAPVLVIYDKSNRPSGIPERFSGSNSGNTATLTISGTQAEDEADYYCQSYANTLSLVFGGGTKLTVLGSGSGDKTHTCPPCPAPEAAGGPSVFLFPPKPKDTLMISRTPEVTCVVVDVSHEDPEVKFNWYVDGVEVHNAKTKPREEQYNSTYRVVSVLTVLHQDWLNGKEYKCKVSNKALGAPIEKTISKAKGQPREPQVYTLPPSREEMTKNQVSLTCLVKGFYPSDIAVEWESNGQPENNYKTTPPVLDSDGSFFLYSKLTVDKSRWQQGNVFSCSVMHEALHNHYTQKSLSLSPGK | 0.8 | 5.6 |  |
| F1:5:L1:Fc (bispecific antibody) EVQLVESGGGLVQPGGSLRLSCAASGFTFSHYTLSWVRQAPGKGLEWVSVISGDGSYTYYADSVKGRFTISSDNSKNTLYLQMNSLRAEDTAVYYCARNFIKYVFANWGQGTLVTVSSGGGGSGGGGSGGGGSDIELTQPPSVSVAPGQTARISCSGDNIGSFYVHWYQQKPGQAPVLVIYDKSNRPSGIPERFSGSNSGNTATLTISGTQAEDEADYYCQSYANTLSLVFGGGTKLTVLGSGSGDVKLVESGGGLVKLGGSLRLSCAASGFSFSTSYMSWVRQTPEKRLELVAAINLNGGSTYYSDTVKGRFTISRDNAKNTLYLQMSSLKSEDTAFYYCASELAGYGTPFAYWGQGTLVTVSAGSAASGSSGGSSSGADIVLTQSPATLSVTPGDSVSLSCKASQSISYNLHWYQQKSHESPRLLIKYTSQSISGIPSRFSGSGSGTDFTLTINNVETEDFGMYFCQQSNSWPLTFGAGTKLEVKGSGSGDKTHTCPPCPAPEAAGGPSVFLFPPKPKDTLMISRTPEVTCVVVDVSHEDPEVKFNWYVDGVEVHNAKTKPREEQYNSTYRVVSVLTVLHQDWLNGKEYKCKVSNKALGAPIEKTISKAKGQPREPQVYTLPPSREEMTKNQVSLTCLVKGFYPSDIAVEWESNGQPENNYKTTPPVLDSDGSFFLYSKLTVDKSRWQQGNVFSCSVMHEALHNHYTQKSLSLSPGK | 0.3 | 5.1 |  |
| L1:10:F1:Fc (bispecific antibody) DVKLVESGGGLVKLGGSLRLSCAASGFSFSTSYMSWVRQTPEKRLELVAAINLNGGSTYYSDTVKGRFTISRDNAKNTLYLQMSSLKSEDTAFYYCASELAGYGTPFAYWGQGTLVTVSAGSAASGSSGGSSSGADIVLTQSPATLSVTPGDSVSLSCKASQSISYNLHWYQQKSHESPRLLIKYTSQSISGIPSRFSGSGSGTDFTLTINNVETEDFGMYFCQQSNSWPLTFGAGTKLEVKGSGSGGSGSGEVQLVESGGGLVQPGGSLRLSCAASGFTFSHYTLSWVRQAPGKGLEWVSVISGDGSYTYYADSVKGRFTISSDNSKNTLYLQMNSLRAEDTAVYYCARNFIKYVFANWGQGTLVTVSSGGGGSGGGGSGGGGSDIELTQPPSVSVAPGQTARISCSGDNIGSFYVHWYQQKPGQAPVLVIYDKSNRPSGIPERFSGSNSGNTATLTISGTQAEDEADYYCQSYANTLSLVFGGGTKLTVLGSGSGDKTHTCPPCPAPEAAGGPSVFLFPPKPKDTLMISRTPEVTCVVVDVSHEDPEVKFNWYVDGVEVHNAKTKPREEQYNSTYRVVSVLTVLHQDWLNGKEYKCKVSNKALGAPIEKTISKAKGQPREPQVYTLPPSREEMTKNQVSLTCLVKGFYPSDIAVEWESNGQPENNYKTTPPVLDSDGSFFLYSKLTVDKSRWQQGNVFSCSVMHEALHNHYTQKSLSLSPGK | 0.7 | 5.9 |  |
